Assay results reported in the RNAGym collection of RNA variant scans (doi:10.1093/molbev/msab373).

B1: Azoarcus group I ribozyme (parent)
chain: GUGCCUUGCGCCGGGAAACCACGCAAGGGAUGGUGUCAAAUUCGGCGAAACCUAAGCGCCCGCCCGGGCGUAUGGCAACGCCGAGCCAAGCUUCGGCGCCUGCGCCGAUGAAGGUGUAGAGACUAGACGGCACCCACCUAAGGCAAACGCUAUGGUGAAGGCAUAGUCCAGGGAGUGGCGAAAGUCACACAAACCGG

Variants of: B1
Test: reverse-splicing fitness (ratio to wild type); higher = more active; in vitro selection; Mg2+ level not given
How it was run: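 An in vitro group I ribozyme library with randomized positions was T7-transcribed and gel-purified. In triplicate, 10 pmol RNA in EPPS pH 7.5 was reacted with 50 pmoles of a 30-nt RNA substrate for 1 h at 37 °C across several added MgCl2 levels (1–48 mM), then stopped with EDTA. Products were reverse transcribed from a substrate-complementary primer, PCR-amplified and sequenced (HiSeq 4000). Fitness is a variant's read proportion after selection over that before, normalised to wild type.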

Row | Variant | reverse-splicing fitness
1 | A120G C150U C169G U176A | 0.157
2 | A120G C150U C169G U176C | 0.195
3 | A120G C150U C169G U176G | 0.00753
4 | A120G C150U C169U | 0.284
5 | A120G C150U C169U U176A | 0.136
6 | A120G C150U C169U U176C | 0.159
7 | A120G C150U C169U U176G | 0.011
8 | A120G C150U U176A | 0.125
9 | A120G C150U U176C | 0.164
10 | A120G C150U U176G | 0.0157
11 | A120G C169A | 0.444
12 | A120G C169A U176A | 0.112
13 | A120G C169A U176C | 0.189
14 | A120G C169A U176G | 0.00677
15 | A120G C169G | 0.64
16 | A120G C169G U176A | 0.209
17 | A120G C169G U176C | 0.261
18 | A120G C169G U176G | 0.0117
19 | A120G C169U | 0.418
20 | A120G C169U U176A | 0.179
21 | A120G C169U U176C | 0.204
22 | A120G C169U U176G | 0.0211
23 | A120G U176A | 0.213
24 | A120G U176C | 0.222

Row | Variant | reverse-splicing fitness
25 | A120G U176G | 0.0139
26 | A120U | 0.858
27 | A120U A145C | 0.787
28 | A120U A145C C150A | 0.116
29 | A120U A145C C150A C169A | 0.0021
30 | A120U A145C C150A C169A U176A | 0.00216
31 | A120U A145C C150A C169A U176C | 0.00175
32 | A120U A145C C150A C169A U176G | 0.00203
33 | A120U A145C C150A C169G | 0.0132
34 | A120U A145C C150A C169G U176A | 0.00491
35 | A120U A145C C150A C169G U176C | 0.0032
36 | A120U A145C C150A C169G U176G | 0.00221
37 | A120U A145C C150A C169U | 0.0192
38 | A120U A145C C150A C169U U176A | 0.00859
39 | A120U A145C C150A C169U U176C | 0.00371
40 | A120U A145C C150A C169U U176G | 0.00358
41 | A120U A145C C150A U176A | 0.0864
42 | A120U A145C C150A U176C | 0.061
43 | A120U A145C C150A U176G | 0.0538
44 | A120U A145C C150G | 0.293
45 | A120U A145C C150G C169A | 0.00349
46 | A120U A145C C150G C169A U176A | 0.00247
47 | A120U A145C C150G C169A U176C | 0.00228
48 | A120U A145C C150G C169A U176G | 0.00186

Row | Variant | reverse-splicing fitness
49 | A120U A145C C150G C169G | 0.0341
50 | A120U A145C C150G C169G U176A | 0.00551
51 | A120U A145C C150G C169G U176C | 0.00281
52 | A120U A145C C150G C169G U176G | 0.00252
53 | A120U A145C C150G C169U | 0.0478
54 | A120U A145C C150G C169U U176A | 0.00626
55 | A120U A145C C150G C169U U176C | 0.00753
56 | A120U A145C C150G C169U U176G | 0.00273
57 | A120U A145C C150G U176A | 0.132
58 | A120U A145C C150G U176C | 0.121
59 | A120U A145C C150G U176G | 0.0278
60 | A120U A145C C150U | 0.459
61 | A120U A145C C150U C169A | 0.00515
62 | A120U A145C C150U C169A U176A | 0.00179
63 | A120U A145C C150U C169A U176C | 0.00274
64 | A120U A145C C150U C169A U176G | 0.00156
65 | A120U A145C C150U C169G | 0.0691
66 | A120U A145C C150U C169G U176A | 0.0156
67 | A120U A145C C150U C169G U176C | 0.0135
68 | A120U A145C C150U C169G U176G | 0.00233
69 | A120U A145C C150U C169U | 0.0928
70 | A120U A145C C150U C169U U176A | 0.0309
71 | A120U A145C C150U C169U U176C | 0.0258
72 | A120U A145C C150U C169U U176G | 0.00705

Row | Variant | reverse-splicing fitness
73 | A120U A145C C150U U176A | 0.328
74 | A120U A145C C150U U176C | 0.222
75 | A120U A145C C150U U176G | 0.167
76 | A120U A145C C169A | 0.0147
77 | A120U A145C C169A U176A | 0.00275
78 | A120U A145C C169A U176C | 0.00401
79 | A120U A145C C169A U176G | 0.00153
80 | A120U A145C C169G | 0.231
81 | A120U A145C C169G U176A | 0.0356
82 | A120U A145C C169G U176C | 0.0504
83 | A120U A145C C169G U176G | 0.00318
84 | A120U A145C C169U | 0.263
85 | A120U A145C C169U U176A | 0.0854
86 | A120U A145C C169U U176C | 0.1
87 | A120U A145C C169U U176G | 0.0133
88 | A120U A145C U176A | 0.634
89 | A120U A145C U176C | 0.452
90 | A120U A145C U176G | 0.36
91 | A120U A145G | 0.837
92 | A120U A145G C150A | 0.361
93 | A120U A145G C150A C169A | 0.00622
94 | A120U A145G C150A C169A U176A | 0.00533
95 | A120U A145G C150A C169A U176C | 0.00372
96 | A120U A145G C150A C169A U176G | 0.00241

Row | Variant | reverse-splicing fitness
97 | A120U A145G C150A C169G | 0.0459
98 | A120U A145G C150A C169G U176A | 0.012
99 | A120U A145G C150A C169G U176C | 0.0214
100 | A120U A145G C150A C169G U176G | 0.00259
101 | A120U A145G C150A C169U | 0.0612
102 | A120U A145G C150A C169U U176A | 0.0235
103 | A120U A145G C150A C169U U176C | 0.032
104 | A120U A145G C150A C169U U176G | 0.00424
105 | A120U A145G C150A U176A | 0.222
106 | A120U A145G C150A U176C | 0.218
107 | A120U A145G C150A U176G | 0.063
108 | A120U A145G C150G | 0.25
109 | A120U A145G C150G C169A | 0.00998
110 | A120U A145G C150G C169A U176A | 0.0107
111 | A120U A145G C150G C169A U176C | 0.00713
112 | A120U A145G C150G C169A U176G | 0.00464
113 | A120U A145G C150G C169G | 0.0353
114 | A120U A145G C150G C169G U176A | 0.00914
115 | A120U A145G C150G C169G U176C | 0.00575
116 | A120U A145G C150G C169G U176G | 0.00354
117 | A120U A145G C150G C169U | 0.0537
118 | A120U A145G C150G C169U U176A | 0.00909
119 | A120U A145G C150G C169U U176C | 0.0205
120 | A120U A145G C150G C169U U176G | 0.0045

Row | Variant | reverse-splicing fitness
121 | A120U A145G C150G U176A | 0.084
122 | A120U A145G C150G U176C | 0.146
123 | A120U A145G C150G U176G | 0.013
124 | A120U A145G C150U | 0.841
125 | A120U A145G C150U C169A | 0.0163
126 | A120U A145G C150U C169A U176A | 0.00538
127 | A120U A145G C150U C169A U176C | 0.00469
128 | A120U A145G C150U C169A U176G | 0.00258
129 | A120U A145G C150U C169G | 0.199
130 | A120U A145G C150U C169G U176A | 0.0289
131 | A120U A145G C150U C169G U176C | 0.063
132 | A120U A145G C150U C169G U176G | 0.00281
133 | A120U A145G C150U C169U | 0.256
134 | A120U A145G C150U C169U U176A | 0.0753
135 | A120U A145G C150U C169U U176C | 0.108
136 | A120U A145G C150U C169U U176G | 0.00649
137 | A120U A145G C150U U176A | 0.54
138 | A120U A145G C150U U176C | 0.532
139 | A120U A145G C150U U176G | 0.155
140 | A120U A145G C169A | 0.0154
141 | A120U A145G C169A U176A | 0.00474
142 | A120U A145G C169A U176C | 0.00664
143 | A120U A145G C169A U176G | 0.00148
144 | A120U A145G C169G | 0.255

Row | Variant | reverse-splicing fitness
145 | A120U A145G C169G U176A | 0.0414
146 | A120U A145G C169G U176C | 0.0902
147 | A120U A145G C169G U176G | 0.00281
148 | A120U A145G C169U | 0.286
149 | A120U A145G C169U U176A | 0.0927
150 | A120U A145G C169U U176C | 0.126
151 | A120U A145G C169U U176G | 0.0132
152 | A120U A145G U176A | 0.704
153 | A120U A145G U176C | 0.685
154 | A120U A145G U176G | 0.342
155 | A120U A145U | 0.89
156 | A120U A145U C150A | 0.215
157 | A120U A145U C150A C169A | 0.00309
158 | A120U A145U C150A C169A U176A | 0.0027
159 | A120U A145U C150A C169A U176C | 0.00256
160 | A120U A145U C150A C169A U176G | 0.00156
161 | A120U A145U C150A C169G | 0.0282
162 | A120U A145U C150A C169G U176A | 0.00797
163 | A120U A145U C150A C169G U176C | 0.0122
164 | A120U A145U C150A C169G U176G | 0.00216
165 | A120U A145U C150A C169U | 0.0358
166 | A120U A145U C150A C169U U176A | 0.0134
167 | A120U A145U C150A C169U U176C | 0.015
